Here are results for one substance from patent US20250044282A1.

The assay concerns the target HIV-1 integrase fused to HA tag at the C terminus (INHA) (HIV-1 LAI (BRU)) (UniProt P03367).

In turn, “HIV-1 CA (capsid protein) (from UniProt P03348 133-363)” showed a percentage of colocalization of 70%.
